Among the data in article PMC6070508 are Kd values, retold here.

The target of test [1] is 2:1 8D6 Fab/IgE-Fc complex. In words: SPR; IgE-Fc captured on an 8D6 Fab surface, then saturated with 100 nM 8D6 Fab (2:1 8D6 Fab/IgE-Fc complex); derCD23 injected at 10 to 0.156 uM; HBS-P with 5 mM CaCl2, 25 °C.
The target in test [2] is 1:1 8D6 Fab/IgE-Fc complex. In words: SPR; IgE-Fc captured on an 8D6 Fab surface (1:1 8D6 Fab/IgE-Fc complex); derCD23 injected at 10 to 0.156 uM; HBS-P with 5 mM CaCl2, 25 °C.

What is called Kd is the constant that tells how readily two partners part at equilibrium. Read a high Kd as lower affinity.

2:1 8D6 Fab/IgE-Fc complex, sequence (heavy, as listed by the source, chain 1 of 2): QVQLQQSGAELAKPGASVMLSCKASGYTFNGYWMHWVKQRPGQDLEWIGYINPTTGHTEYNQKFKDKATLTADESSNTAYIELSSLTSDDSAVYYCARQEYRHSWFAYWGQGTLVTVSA
2:1 8D6 Fab/IgE-Fc complex, sequence (light, as listed by the source, chain 2 of 2): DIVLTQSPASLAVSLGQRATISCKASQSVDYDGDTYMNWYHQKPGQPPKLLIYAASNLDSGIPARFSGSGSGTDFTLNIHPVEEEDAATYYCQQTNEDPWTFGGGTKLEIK
1:1 8D6 Fab/IgE-Fc complex, sequence (heavy, as listed by the source, chain 1 of 2): as the sequence (heavy, as listed by the source, chain 1 of 2) above
1:1 8D6 Fab/IgE-Fc complex, sequence (light, as listed by the source, chain 2 of 2): as the sequence (light, as listed by the source, chain 2 of 2) above

derCD23 (domain or fragment): the dissociation constant (Kd) in test [1] and in test [2] was 1.7 µM throughout.
